Holding throughout (test): SPR
Holding throughout (details): both partners purified

The target in test [1] is SARS-CoV-2 XBB.1 RBD (SARS-CoV-2 Omicron XBB.1, strain).
Test [2] has as its target SARS-CoV-2 XBB.1.5 RBD (SARS-CoV-2, UniProt P0DTC2).
Test [3] has as its target SARS-CoV-2 CH.1.1 RBD (SARS-CoV-2 Omicron CH.1.1, strain).
In test [4] the target is SARS-CoV-2 BA.1 RBD (SARS-CoV-2, UniProt P0DTC2).
Test [5] has as its target SARS-CoV-2 BA.2 RBD (SARS-CoV-2 Omicron BA.2, strain).
The target in test [6] is SARS-CoV-2 BA.2.75.2 RBD (SARS-CoV-2 Omicron BA.2.75.2, strain).
For test [7], the target named is SARS-CoV-2 BQ.1.1 RBD (SARS-CoV-2, UniProt P0DTC2).

Broadly, the Kd is the concentration at which binding is half-saturated. A lower Kd goes with a tighter complex. In general, koff refers to the rate constant with which the complex falls apart. As usually defined, the kon is the second-order rate constant of association. A low value points to slow association.

B1: VIR-7229 Fab fragment (Fab, V domains shown)
VH: EVQLVESGGSVVQPGRALRLSCAASGITFSSFGMYWVRQAPGKGLEWLGYIAYDGSDTYYADSVKGRFTISRDNSKNTLYLQMNSLRIEDTAVYYCAKDYYPLLSYYYGLDVWGQGTTVTVSS
VL: QSVLTQPRSVSGSPGQSVTISCTGTSSDVGAYNYVSWYQQHPGKAPKFMIYDVDQRPSGVPDRFSGSKSGNTASLIISGLQAEDEADYYCSSYAGSYIWVFGGGTQLTVL
notes: source: ExpiCHO (IgG1); Fab by fragmentation of the IgG with the FabLACTICA Fab kit
Take B1: the Kd is 0.21 nM in test [1]; 0.06 nM in test [2]; 0.12 nM in test [3]; 0.434 nM in test [4]; 0.396 nM in test [5]; 0.284 nM in test [6]. In addition, the dissociation constant Kd in test [7] was 0.0993 nM. Besides, the koff was found to be 0.000108 s⁻¹ in test [1]; 4.09e-05 s⁻¹ in test [2]; 6.63e-05 s⁻¹ in test [3]; 0.000124 s⁻¹ in test [4]; 9.72e-05 s⁻¹ in test [5]; 0.000117 s⁻¹ in test [6]. This molecule yielded a koff in test [7] of 5.63e-05 s⁻¹. The kon in test [1] was 524000 M⁻¹ s⁻¹; in test [2] it was 752000 M⁻¹ s⁻¹; in test [3], 586000 M⁻¹ s⁻¹; in test [4] it was 285000 M⁻¹ s⁻¹; in test [5], 245000 M⁻¹ s⁻¹; in test [6], 431000 M⁻¹ s⁻¹. This molecule yielded a kon in test [7] of 582000 M⁻¹ s⁻¹.

For the origin of these results see publication PMC11645210 (Cell, 2024).
